Laboratory results as given in IntAct's records for PubMed 10660620.

B1: Paired immunoglobulin-like type 2 receptor alpha (Homo sapiens), Q9UKJ1 (parent)
chain: MGRPLLLPLLPLLLPPAFLQPSGSTGSGPSYLYGVTQPKHLSASMGGSVEIPFSFYYPWELATAPDVRISWRRGHFHRQSFYSTRPPSIHKDYVNRLFLNWTEGQKSGFLRISNLQKQDQSVYFCRVELDTRSSGRQQWQSIEGTKLSITQAVTTTTQRPSSMTTTWRLSSTTTTTGLRVTQGKRRSDSWHISLETAVGVAVAVTVLGIMILGLICLLRWRRRKGQQRTKATTPAREPFQNTEEPYENIRNEGQNTDPKLNPKDDGIVYASLALSSSTSPRAPPSHRPLKSPQNETLYSVLKA

Variants of: B1
Details: with ptn6_human PTPN6, P29350
Sequence of ptn6_human PTPN6, P29350 (P29350 whole entry): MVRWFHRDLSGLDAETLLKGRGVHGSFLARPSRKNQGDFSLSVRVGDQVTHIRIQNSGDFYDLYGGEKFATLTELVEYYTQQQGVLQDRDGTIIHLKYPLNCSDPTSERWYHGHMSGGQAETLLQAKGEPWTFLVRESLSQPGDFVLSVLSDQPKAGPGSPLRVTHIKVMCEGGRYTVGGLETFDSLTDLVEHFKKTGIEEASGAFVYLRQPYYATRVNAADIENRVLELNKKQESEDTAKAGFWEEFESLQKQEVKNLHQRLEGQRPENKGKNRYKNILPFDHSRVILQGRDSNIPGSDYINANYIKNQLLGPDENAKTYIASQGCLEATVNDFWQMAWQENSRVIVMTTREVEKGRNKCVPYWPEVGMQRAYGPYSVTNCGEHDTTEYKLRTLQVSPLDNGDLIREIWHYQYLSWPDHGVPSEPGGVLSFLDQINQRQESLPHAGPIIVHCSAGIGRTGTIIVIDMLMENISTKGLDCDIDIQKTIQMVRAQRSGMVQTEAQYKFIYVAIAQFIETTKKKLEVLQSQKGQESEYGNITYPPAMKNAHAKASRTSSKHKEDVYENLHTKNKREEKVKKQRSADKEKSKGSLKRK

Variant	effect of a mutation on the interaction
Y269F;Y298F	decreasing interaction
Y269F	decreasing interaction
